Experiments:
[1] = Relaxivity of the conjugates in aqueous solution; type: physicochemical; settings: +37° C., 20 MHz, relaxivity per mol of gadolinium calculated from the measured values
Protocol: (§1) As comparison substances, Gd-DTPA (1) with the formula: [drawing 16] and Gd-GlyMeDOTA (2) with the formula: [drawing 17] which were reacted in each case with bovine serum albumin (BSA), were used.
(§2) The measurements were made in each case in aqueous solution and in plasma at +37° C. and a frequency of 20 MHz. The results are summarized in Table 2 below, whereby the indicated relaxivities per mol of gadolinium were calculated from the measured values: […]

[2] = Relaxivity of the conjugates in plasma; type: physicochemical; settings: +37° C., 20 MHz, relaxivity per mol of gadolinium calculated from the measured values
Protocol: as §1, §2

Gd-GlyMeDOTA [Vergleichssubstanz 2]
R1 (H2O) [1]: 18.3 L/mmol/s
R1 (Plasma) [2]: 20.8 L/mmol/s

From patent US20070009442A1, “Macrocyclic metal complexes and their use for the production of conjugates with biomolecules” (priority 2001, published 2007)
